Data published in IntAct's records for PubMed 32453716.

B1: TOG array regulator of axonemal microtubules protein 1 (Homo sapiens), Q9Y4F4 (parent)
chain: MAAAPSALLLLPPFPVLSTYRLQSRSRPSAPETDDSRVGGIMRGEKNYYFRGAAGDHGSCPTTTSPLASALLMPSEAVSSSWSESGGGLSGGDEEDTRLLQLLRTARDPSEAFQALQAALPRRGGRLGFPRRKEALYRALGRVLVEGGSDEKRLCLQLLSDVLRGQGEAGQLEEAFSLALLPQLVVSLREENPALRKDALQILHICLKRSPGEVLRTLIQQGLESTDARLRASTALLLPILLTTEDLLLGLDLTEVIISLARKLGDQETEEESETAFSALQQIGERLGQDRFQSYISRLPSALRRHYNRRLESQFGSQVPYYLELEASGFPEDPLPCAVTLSNSNLKFGIIPQELHSRLLDQEDYKNRTQAVEELKQVLGKFNPSSTPHSSLVGFISLLYNLLDDSNFKVVHGTLEVLHLLVIRLGEQVQQFLGPVIAASVKVLADNKLVIKQEYMKIFLKLMKEVGPQQVLCLLLEHLKHKHSRVREEVVNICICSLLTYPSEDFDLPKLSFDLAPALVDSKRRVRQAALEAFAVLASSMGSGKTSILFKAVDTVELQDNGDGVMNAVQARLARKTLPRLTEQGFVEYAVLMPSSAGGRSNHLAHGADTDWLLAGNRTQSAHCHCGDHVRDSMHIYGSYSPTICTRRVLSAGKGKNKLPWENEQPGIMGENQTSTSKDIEQFSTYDFIPSAKLKLSQGMPVNDDLCFSRKRVSRNLFQNSRDFNPDCLPLCAAGTTGTHQTNLSGKCAQLGFSQICGKTGSVGSDLQFLGTTSSHQEKVYASLNFGSKTQQTFGSQTECTSSNGQNPSPGAYILPSYPVSSPRTSPKHTSPLIISPKKSQDNSVNFSNSWPLKSFEGLSKPSPQKKLVSQKSSDPTGRNHGENSQEKPPVQLTPALVRSPSSRRGLNGTKPVPPIPRGISLLPDKADLSTVGHKKKEPDDIWKCEKDSLPIDLSELNFKDKDLDQEEMHSSLRSLRNSAAKKRAKLSGSTSDLESPDSAMKLDLTMDSPSLSSSPNINSYSESGVYSQESLTSSLSTTPQGKRIMSDIFPTFGSKPCPTRLSSAKKKISHIAEQSPSAGSSSNPQQISSFDFTTTKALSEDSVVVVGKGVFGSLSSAPATCSQSVISSVENGDTFSIKQSIEPPSGIYGRSVQQNISSYLDVENEKDAKVSISKSTYNKMRQKRKEEKELFHNKDCEKKEKNSWERMRHTGTEKMASESETPTGAISQYKERMPSVTHSPEIMDLSELRPFSKPEIALTEALRLLADEDWEKKIEGLNFIRCLAAFHSEILNTKLHETNFAVVQEVKNLRSGVSRAAVVCLSDLFTYLKKSMDQELDTTVKVLLHKAGESNTFIREDVDKALRAMVNNVTPARAVVSLINGGQRYYGRKMLFFMMCHPNFEKMLEKYVPSKDLPYIKDSVRNLQQKGLGEIPLDTPSAKGRRSHTGSVGNTRSSSVSRDAFNSAERAVTEVREVTRKSVPRNSLESAEYLKLITGLLNAKDFRDRINGIKQLLSDTENNQDLVVGNIVKIFDAFKSRLHDSNSKVNLVALETMHKMIPLLRDHLSPIINMLIPAIVDNNLNSKNPGIYAAATNVVQALSQHVDNYLLLQPFCTKAQFLNGKAKQDMTEKLADIVTELYQRKPHATEQKVLVVLWHLLGNMTNSGSLPGAGGNIRTATAKLSKALFAQMGQNLLNQAASQPPHIKKSLEELLDMTILNEL
partner: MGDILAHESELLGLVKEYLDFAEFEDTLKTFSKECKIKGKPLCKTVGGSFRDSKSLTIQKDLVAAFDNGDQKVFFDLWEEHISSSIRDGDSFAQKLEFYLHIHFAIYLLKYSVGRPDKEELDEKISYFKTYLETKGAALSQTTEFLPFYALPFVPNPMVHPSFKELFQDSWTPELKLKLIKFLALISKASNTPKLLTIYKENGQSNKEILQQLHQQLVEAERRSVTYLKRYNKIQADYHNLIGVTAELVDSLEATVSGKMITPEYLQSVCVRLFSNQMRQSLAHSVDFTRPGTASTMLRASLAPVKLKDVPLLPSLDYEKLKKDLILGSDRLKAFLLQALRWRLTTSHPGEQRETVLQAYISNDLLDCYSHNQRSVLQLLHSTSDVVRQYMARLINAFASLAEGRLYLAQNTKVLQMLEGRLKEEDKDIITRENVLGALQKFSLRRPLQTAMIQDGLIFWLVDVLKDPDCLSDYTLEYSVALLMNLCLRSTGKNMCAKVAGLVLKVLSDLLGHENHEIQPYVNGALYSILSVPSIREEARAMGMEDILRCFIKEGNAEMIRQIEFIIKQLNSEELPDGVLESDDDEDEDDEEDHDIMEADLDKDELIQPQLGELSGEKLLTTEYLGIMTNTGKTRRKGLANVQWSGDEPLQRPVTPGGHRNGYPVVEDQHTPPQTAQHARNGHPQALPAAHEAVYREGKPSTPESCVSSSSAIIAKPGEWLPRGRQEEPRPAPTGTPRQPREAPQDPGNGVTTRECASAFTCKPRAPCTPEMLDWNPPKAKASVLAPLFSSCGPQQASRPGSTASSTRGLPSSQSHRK

Variants of: B1
Details: with armc9_human ARMC9, Q7Z3E5

Variant | effect of a mutation on the interaction
R1311C | with no effect
R368W | disrupting interaction strength
L375P | disrupting interaction strength
